These results are taken from patent US20210371823A1.

The target of the test is human MICA protein (hMICA) (human) (UniProt Q29983). Put plainly: cell-based or functional assay.
UniProt Q29983, sequence (Q29983 24-383): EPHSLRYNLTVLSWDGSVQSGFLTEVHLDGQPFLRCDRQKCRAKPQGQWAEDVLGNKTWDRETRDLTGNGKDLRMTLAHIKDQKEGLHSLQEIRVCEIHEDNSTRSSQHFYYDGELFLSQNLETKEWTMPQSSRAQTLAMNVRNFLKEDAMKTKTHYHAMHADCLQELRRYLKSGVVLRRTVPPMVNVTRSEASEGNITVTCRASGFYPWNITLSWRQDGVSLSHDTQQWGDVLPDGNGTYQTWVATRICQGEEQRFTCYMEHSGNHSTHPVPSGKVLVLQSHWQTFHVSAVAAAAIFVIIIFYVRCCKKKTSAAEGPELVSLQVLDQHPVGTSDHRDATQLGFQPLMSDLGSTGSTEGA

Take “activation receptor NKG2D on NK cells (from UniProt P26718 1-216)”: the killing effect of NK cells on 3T3-Luc/hMICA cells at effector-target ratio 1:1 (luciferase-based killing assay) was found to be 60%.
